Test results published in the supplement of paper PMC9942255.
Values joined by “and” are separate entries in the source; they are usually repeats but may differ in a detail not shown here. Equal entries are not always repeated.

Tested on: Bacillus subtilis DB104 (SP-AmyQ fusion secretion)
Test: AmyQ secretion efficiency, weighted average sort bin (1 = best secretion, 10 = worst) (bin number (weighted average, 1-10)); higher = lower secretion efficiency
Summary of the method: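 Secretion score gives the read-frequency-weighted average bin number, normalised to beads per bin, with low-abundance sequences left out. A B. subtilis DB104 library expressing mature AmyQ fused to designed signal peptides, integrated at amyE, was encapsulated with fluorescein-starch at about 0.3 cells per ~65 nL alginate bead. Beads were grown about 13 h at room temperature, stained with nile red, and the occupied ones were sorted by large-particle flow cytometry into 10 equally populated bins by green/red fluorescence ratio before the amplicons from each bin were Illumina-sequenced.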

Sequence	AmyQ secretion efficiency
MFNRLFRVCFLAALIMAFTLPNSTYAQKP	2.43
MKLKKRVSMFLVALTMCGGLFVFAAKAVKT	5.56
MKLWMRKTLVVLFTIVTFGLKKRPAALMADKP	6.91
MKKQIITATTAVVLGSTLFAGAASYQSI	6.33
MKNMSCKLVVSVTLFFSFLTIGPLAHRQNS	6.88
MRKKRVILAAFILVGSTLGAFSFSSDASAKHV	2.62
MTMLRKIIGWILLLCIIPLFAFTVIASGASK	7.69
MKKFIFNMFIGLLFMLCLAALFTIGFPAQQADAAEA	2.9
MKKWMITIAMLILAGIALFVFISPPKSHKT	5.84
MKKKQVMLRKKKAAGLGLTALHSAPAAKAAPL	7.14
MRPVFPLILSAVLFLSCFFGARQTEASARKR	2.01
MLKKIALTLCPAIVGSLLFFTAPASARKR	6.88
MLSIWIGMLAAAVLLLMVPKVSLADAA	6.86
MFFTIVAGLAVSAVVGSSMAAAPAEAKTI	2.75
MKKIVSILFMFGLVMGFSQFQPSTVFAAED	2.13
MKNMSCKTNLVVSVTLFFSFLTIGPLAHAQNS	1.06
MKKWMITIAMLILAGIALFVFISPLKWHKT	5.74
MKRKLLSSLAISASAPTASFAAES	7.94
MRIFKKAVFVIMISFLIATVNVNTAHAAID	3.53 and 3.56 and 3.38
MKWYRRRQRCSICCAAVLLAGGAAQAEAV	4.99
MGKRGGSGSSLFISSAVLLSILLPSGQAHAQSA	1.07
MKKRKRRNFKRFIAAFLVLALMIRRVPARVLAKST	6.23
MFKKLLLATSALTPLDGHAKAQEV	5.8
MKKRLIAPMLLSAASLAFFAMSGSNQAAAY	3.88
MSSKAWFLPLVCVLLISGWLAPAASASAQTT	1.72
MMSTIMSFVAVAALSTTAFGAHASAKEI	4.72

Sequence	AmyQ secretion efficiency
MRPVFPLILSAVLFLSCFFGARQTEMSASKR	3.55
MKKRLIAPMLLSAASLAFFAMSGSAQRAAY	6.9
MKKRFSLIMMTGLLFGLTSPAFAADE	3.46
MLTKRLLTIYIMLLGLIAWFPGAAQAKRK	6.07
MRGKSAVLLSLIMLIAGFLISFLFQM	7.41
MTMLRKIIGWILLLCIIPLFAFTVIASSKEV	6.98
MRPVFPLILSAVLFLSCFFGARQTEASFSKR	2.95
MKSKGSIMACLILFSFTITTFINTETCSAFSN	4.49
MTMLRKKGRWSLLLCIIPLFAFTVIASGKEV	6.17
MAIIIAIIAAVIVIAALITFRRRNASPG	8.26
MPIKKKVMMCLAVTLVFGSMSFPTLTNWGGFKE	7.59
MKRTWNVCLTALLSVLLVAGSVTLVAAPFHAEAKKP	2.5
MKKLLAAGIIGLLTVTLVFLVVLLSIASPSFAAEK	2.43
MKKRLIGFLVLVPALIMSGITLKEANKK	6.33
MNFKKTVVSALSISALALRKRRKRASAHEI	7.78
MIAYFGKCLLLVTIMFLGVLFGMHQANHG	6.41
MKKGIIRKTLVSFVLFFALSTGITGVQAAPA	2
MKRIRIPMTLRKKRALTIAPLSFASAEEN	7.44
MFNRLFRVCFLAALIMAFDDDNSVYAQKP	2.33
MKRSISIFITCLLITLLTMGGMIASPASEAGT	4.1
MKKLVLCVSILAVILSGVALVQLS	5.7
MKKLLSTAAGLLLSLTATSVSAHYV	4.36
MKKTIMSFVAVAALSTTAFEEDHASAKEI	2.56
MRSYIKVLTMCFLGLILFVPTRLADNS	6.28
MKRFSTAYLLLGILCSAAVFLIGAPSRALGAPK	1.81
MKVPKTMLLSTAAGLLLSLTATSVSSHYV	7.63

Sequence	AmyQ secretion efficiency
MLTKRLLTIYIMLLGLIFLVALAWFPGAAQAEEK	4.8
MLKKIALTLCPAIVGSLLFFTAPASAHKK	1.72
MRKKRTIFAFLTGLMMFGTITAASASPD	4.56
MRKSLITLGLASVIGTSSFLIPFTKASAETL	2.6
MKKAAAVLLSLGLVFGFSYGAGHVAENKTK	4.78
MTKLKMLSMLTVMIASLFIFSSQGLAVQY	2.52
MTKLKMLSMLTVMIASLFIFSSQTLAVQY	2.28
MTKKAWFLPLVCVLLISGWLAPAASASAQTK	1.59
MKSKGSIMACLILFSFTITTFINTETISAEED	4.14
MHLIRAAGAVCLAVVLIAGCRFNEDQHQAEWENT	6.12
MRPVFPLILSAVLFLSCFFGARQTEASLSKR	3.68
MKKWMAGLFLAAAVLLCLMVPQQQQGASS	6.69
MKLSVKIAGVLTVAAAAMRKRKKRATAKGN	7.22
MFGWMAGLFLAAAVLLCLMVPQQIQGASS	4.3
MKLAKRVSALTPSTTLAITYKAKEL	6.96
MKRLFMKASLVLFAVVFVFAVKGAPKAKAETH	1.9
MILKSKLLLSCLALSTVFVATTIANAPTH	6.38
MKKWRKRLIIAVSLAIAIVLFMYTKGEAKAAGM	3.1
MKRTWNTCLTALLSVLLVAGSVPFHAEAKKP	2.37
MKRMIVRMTLMMTLPLLIVCLAFSSFSASARAASE	2.08
MKKAFILSAAAAVGLFTFGASAKEL	5.43
MKKAAAVLLSLGLVFGFSYGAGHVAECKTK	4.74
MRPVFPLILSAVLFLSCFFGARQTEASGSKR	1.87
MKVCQKSIVRFLVSLIIGTFVISVPFMANARKR	3.31
MKKLLAAGIIGLLTVSIASPSFLAEK	5.65
MKKKQVMLALTAAAGLGLTALHAKAAPL	2.9

Sequence	AmyQ secretion efficiency
MKSKWMSGLLLVAVGFSFTQVMVHAGRR	7.76
MKKRKRRNFKRQGTQYKGLALMISLVPADVLAKST	7.46
MKKRKRRNFKRFIAAFLVLALMISLVPADTLAKST	1.68
MLKKKWMVGLLAGCLAAGGFSYNFFATEN	6.27
MHQIRAAGAVCLAVVLIAGCRFNEDQHQAEGENT	6.4
MGMKRVITCVMAASLTLGSLLPAGYATAKED	6.01
MKVLLSALLLLLFAFSPSASGKKL	4.69
MLTINLLTIYIMLLGLIAWFPGAAQAEEK	4.46
MKKWSTTIAMLILAGIALFVFISPLKSHKT	5.92
MFNRLFRVCFLAALIMAFTLPNSVYDQKP	6.94
MKQIMIFLTSFMLLAMTGQTALAADE	3.7
MRPVFPLILSAVLFLSCFFGARQTEHSASKR	6.3
MRSYIKVLTMCFLGLILFVPTALAARK	5.25
MRKYTTKGYQKTYFLSVLSGGHHESKAFPV	8.3
MHLIRAAGAVCLAVVLIAGCRKKKRKRHRAEGENT	7.2
MKKTIMSFVAVAALSTTAFGAHGVFPASASAKEI	3.09
MKSKWMSGLLLVAVGFSFTQVMWHAGET	7.01
MKRSISRRRKCLLITLLTMGGMIASPASAAGT	2.97
MKKSQYFIVFICFFVLFSSHPDEAAAADS	4.15
MFKIMSAFVGMVLLTIFCFSPQASAAYD	3.33
MKNMSCKLVVSVTLFFSFLFTIGPLAHAQNS	1.19
MHLIRAAGAVCLAVVLIAGCAFNEDQHQAEGENT	5.56
MKKRKVLLSALLLLLFAFEPSASGKKL	2.85
MKLSVKIAGVLTVAAAAMTAKMYFTAKGN	7.66
MLKKKWMVGLLAGCLAAGGFSYNAFATEE	3.49
MKKKLKKGLTASAIVGTTLVVTPAEAATI	5.93

Sequence	AmyQ secretion efficiency
MTMLRKIIGWILLLCIIPLFAFTVIASGAPV	6.61
MKKRITYSLRRLLAVVAFAFTDSSKAKAAEA	5.28
MFTWIYVVLVLSIAGIGGFSVHAASS	5.5
MKKWIYVVLVLSIAGIGGFSVHAAED	5.68
MGSSILLSSLAISALSLGLLVSAPTASFAAES	3.62
MPYLKRVLLLLVTGLFMSLFAVTATHSAQTG	6.96
MRKFLLAAALGISLLASSNFIKASND	4.88
MKRKRRKMACLILFSFTITTFINTETISAFSN	2.31
MKLAKRVSALTPSTTLAITQKAKEL	5.63
MKSKWMSGLLLVAVGFSFTQVMDHAGET	6.14
MRPVFPLILSAVLFLSCFFGARQTEFSASKR	7.3
MKLKSKLLLSCLALSTVFVATTIANAPRR	6.72
MRGKSAVLLSLIMLIAGFLDEESFSFQM	5.97
MPYLKRVLLLLVTGLFMSLFAVTATASAQDD	3.08
MLCVMMLLFSAIASFPVSLQAKDQ	5.46
MKKRLIAPMLLSAASLAFFAALIFILLLTFMSGSAQAAAY	3.37
MLKRTSFVSSLKKSSAVLLSILLPSGQAHAQSA	3.11
MKKRLIAPMLLSAASLAFFAMSGSMQAAAY	5.75
MRFTKTRGQRQVLGLAAVFPLTAQAEKA	7.51
MRKTIFAFLTGLMMFGTITAASRSPD	6.51
MLCVMMLLFSAIASFPVSAQAAKK	6.38
MIVIILLFISIIVFLKRKKKKIQPQPS	8.16
MKKIVSILFMFGLVMGFSQFQPSTVFAASP	1.65
